Experimental data: article PMC12013499

Legend:
Test in all cases: EMSA
Conditions in all cases: EMSA: 0.5 pmol 32P-tRNA, 0-4 uM enzyme, 20 C, 10 min, 18.5% glycerol added, 5% native PAGE; buffer and pH not given (as in cited refs); n = 3
[1] = test system: T1, RcuCCA (Romanomermis culicivorax)
T1 sequence: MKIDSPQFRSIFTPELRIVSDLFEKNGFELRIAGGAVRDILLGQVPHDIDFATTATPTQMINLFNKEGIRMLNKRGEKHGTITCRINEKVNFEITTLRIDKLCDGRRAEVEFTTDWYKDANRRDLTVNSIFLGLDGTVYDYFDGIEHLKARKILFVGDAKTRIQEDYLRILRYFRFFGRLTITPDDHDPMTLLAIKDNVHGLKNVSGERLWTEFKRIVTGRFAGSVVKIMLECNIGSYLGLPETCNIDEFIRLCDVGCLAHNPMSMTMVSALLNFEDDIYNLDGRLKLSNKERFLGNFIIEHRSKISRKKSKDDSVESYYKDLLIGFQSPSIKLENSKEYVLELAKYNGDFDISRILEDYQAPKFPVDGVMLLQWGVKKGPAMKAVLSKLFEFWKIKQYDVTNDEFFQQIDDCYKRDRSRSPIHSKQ

[2] = test system: T2, HsaCCA-AsuC40 (Homo sapiens / Ascaris suum chimera)
T2 sequence: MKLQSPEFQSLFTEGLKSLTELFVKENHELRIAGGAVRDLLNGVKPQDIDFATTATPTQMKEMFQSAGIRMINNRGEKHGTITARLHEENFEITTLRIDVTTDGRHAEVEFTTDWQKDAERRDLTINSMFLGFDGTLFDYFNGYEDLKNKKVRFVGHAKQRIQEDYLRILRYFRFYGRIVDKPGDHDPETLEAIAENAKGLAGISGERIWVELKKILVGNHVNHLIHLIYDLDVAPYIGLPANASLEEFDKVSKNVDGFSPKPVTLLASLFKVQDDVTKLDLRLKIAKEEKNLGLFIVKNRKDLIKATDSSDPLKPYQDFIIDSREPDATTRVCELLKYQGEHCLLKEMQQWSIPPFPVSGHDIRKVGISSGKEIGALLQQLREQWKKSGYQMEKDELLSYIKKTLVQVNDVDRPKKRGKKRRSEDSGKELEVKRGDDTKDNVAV

[3] = test system: T3, AsuCCA-Hsaβ (Ascaris suum / Homo sapiens chimera)
T3 sequence: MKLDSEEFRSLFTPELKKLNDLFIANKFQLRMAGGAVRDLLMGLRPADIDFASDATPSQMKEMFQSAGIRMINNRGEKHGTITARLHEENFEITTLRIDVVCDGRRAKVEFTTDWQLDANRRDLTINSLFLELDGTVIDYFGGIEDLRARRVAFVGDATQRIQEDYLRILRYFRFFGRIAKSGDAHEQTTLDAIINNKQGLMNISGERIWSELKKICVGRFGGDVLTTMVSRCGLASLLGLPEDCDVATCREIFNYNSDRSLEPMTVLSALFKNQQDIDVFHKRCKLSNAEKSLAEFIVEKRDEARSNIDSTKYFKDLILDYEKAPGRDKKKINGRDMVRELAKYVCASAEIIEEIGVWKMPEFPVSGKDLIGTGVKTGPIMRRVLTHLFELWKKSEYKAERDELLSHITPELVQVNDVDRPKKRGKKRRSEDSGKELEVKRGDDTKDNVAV

[4] = test system: T4, AsuCCA (Ascaris suum)
T4 sequence: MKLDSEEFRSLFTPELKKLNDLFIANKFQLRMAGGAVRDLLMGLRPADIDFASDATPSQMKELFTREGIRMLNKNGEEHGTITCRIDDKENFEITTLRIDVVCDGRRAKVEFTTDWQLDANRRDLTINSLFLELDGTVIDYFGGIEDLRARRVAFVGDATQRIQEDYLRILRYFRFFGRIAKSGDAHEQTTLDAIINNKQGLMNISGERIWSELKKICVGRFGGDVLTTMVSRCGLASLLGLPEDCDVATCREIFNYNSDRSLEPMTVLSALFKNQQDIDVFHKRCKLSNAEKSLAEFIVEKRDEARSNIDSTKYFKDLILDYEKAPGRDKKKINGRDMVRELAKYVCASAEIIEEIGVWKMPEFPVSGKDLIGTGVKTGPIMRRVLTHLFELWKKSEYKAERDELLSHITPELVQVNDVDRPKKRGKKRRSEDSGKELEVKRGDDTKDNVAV

[5] = test system: T5, AsuCCA ΔC40 delC-terminal 40 residues (Ascaris suum)
T5 sequence: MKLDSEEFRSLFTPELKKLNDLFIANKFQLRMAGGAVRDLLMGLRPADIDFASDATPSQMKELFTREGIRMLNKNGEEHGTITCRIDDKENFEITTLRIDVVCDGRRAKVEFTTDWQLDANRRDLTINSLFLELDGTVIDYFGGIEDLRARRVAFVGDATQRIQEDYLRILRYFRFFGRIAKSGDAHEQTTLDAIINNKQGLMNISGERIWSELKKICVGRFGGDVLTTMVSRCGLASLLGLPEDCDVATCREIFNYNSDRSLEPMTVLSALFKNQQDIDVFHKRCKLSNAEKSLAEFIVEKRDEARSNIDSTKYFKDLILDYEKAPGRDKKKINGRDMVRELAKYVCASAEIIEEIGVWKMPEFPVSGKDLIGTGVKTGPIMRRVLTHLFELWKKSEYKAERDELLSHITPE

## Rcu mt-tRNAIle (armless)
[1]
  Kd: 1.4 µM
[2]
  Kd: 0.6 µM
[3]
  Kd: 0.3 µM
[4]
  Kd: 1.1 µM

## Sce tRNAPhe (canonical)
[1]
  Kd: 1.6 µM
[5]
  Kd: 1.7 µM
[2]
  Kd: 0.7 µM
[3]
  Kd: 0.3 µM
[4]
  Kd: 0.5 µM
